Values of other authors, collected in paper PMC12704549.

Target: pro-IL-18 (Homo sapiens) (UniProt Q14116)
Sequence (Q14116 37-193): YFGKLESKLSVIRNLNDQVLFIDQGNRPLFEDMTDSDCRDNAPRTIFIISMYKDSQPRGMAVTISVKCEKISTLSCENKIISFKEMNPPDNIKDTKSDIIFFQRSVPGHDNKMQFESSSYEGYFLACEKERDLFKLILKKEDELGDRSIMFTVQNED

Chain of caspase-4 (P49662 290-377): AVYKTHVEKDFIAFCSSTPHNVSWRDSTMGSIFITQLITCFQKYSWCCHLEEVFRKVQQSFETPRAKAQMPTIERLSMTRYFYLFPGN

caspase-4 (from UniProt P49662)
Kd: 290 nM
